Test results from patent US20210301018A1 (ITABMED HK, published 2021).

Tests used:
[1] = target: T1, human CD19 on cells (human B lymphocytes; Raji, Daudi and Reh tumor cells) (human, UniProt P15391 20-556); assay: cell-based or functional assay
T1 sequence (looked up): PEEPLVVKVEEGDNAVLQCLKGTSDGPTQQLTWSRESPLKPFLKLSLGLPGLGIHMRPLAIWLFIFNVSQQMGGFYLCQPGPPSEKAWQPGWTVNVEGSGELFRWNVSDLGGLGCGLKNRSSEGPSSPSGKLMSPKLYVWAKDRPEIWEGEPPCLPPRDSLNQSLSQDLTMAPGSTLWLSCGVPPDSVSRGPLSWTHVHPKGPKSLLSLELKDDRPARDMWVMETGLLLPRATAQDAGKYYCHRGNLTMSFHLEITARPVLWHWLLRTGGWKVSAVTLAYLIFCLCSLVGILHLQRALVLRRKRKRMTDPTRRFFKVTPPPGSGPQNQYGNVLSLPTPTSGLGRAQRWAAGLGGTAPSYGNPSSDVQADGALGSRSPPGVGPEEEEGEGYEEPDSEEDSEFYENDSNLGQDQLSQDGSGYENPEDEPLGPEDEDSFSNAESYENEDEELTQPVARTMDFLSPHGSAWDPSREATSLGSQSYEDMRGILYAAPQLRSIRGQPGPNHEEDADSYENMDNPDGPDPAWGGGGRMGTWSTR

[2] = target: T2, cynomolgus monkey CD19 on cynomolgus monkey B lymphocytes (cynoPBMC) (cynomolgus monkey, UniProt A0A2K5W8L9 20-557); assay: flow cytometry, binding rate on B cells in cynomolgus monkey PBMC, detection with anti-human Ig κ light chain
T2 construct: whole, on cells; also called cynoCD19; cell surface antigen CD19 on cynomolgus monkey B cells
T2 sequence: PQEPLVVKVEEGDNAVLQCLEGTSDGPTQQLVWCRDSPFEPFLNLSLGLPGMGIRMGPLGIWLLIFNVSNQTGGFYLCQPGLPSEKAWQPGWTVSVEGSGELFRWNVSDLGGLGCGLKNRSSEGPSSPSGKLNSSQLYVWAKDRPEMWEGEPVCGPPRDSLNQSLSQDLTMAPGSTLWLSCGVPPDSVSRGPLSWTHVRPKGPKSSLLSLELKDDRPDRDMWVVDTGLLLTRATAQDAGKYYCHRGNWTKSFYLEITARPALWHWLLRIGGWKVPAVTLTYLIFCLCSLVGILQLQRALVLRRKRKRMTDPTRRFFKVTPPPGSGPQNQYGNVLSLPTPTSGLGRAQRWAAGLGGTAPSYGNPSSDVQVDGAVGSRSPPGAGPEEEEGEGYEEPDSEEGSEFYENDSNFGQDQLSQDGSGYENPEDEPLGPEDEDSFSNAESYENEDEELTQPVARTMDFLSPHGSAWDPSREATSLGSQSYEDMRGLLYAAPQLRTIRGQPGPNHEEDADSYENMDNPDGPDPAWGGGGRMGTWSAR
Experimental: (§1) CynoPBMC Preparation: Whole blood samples from cynomolgus monkeys were diluted with PBS buffer (Gibco), centrifuged by density gradient centrifugation using 90% Ficoll-Paque isolation buffer (obtained by diluting Ficoll-Paque with PBS, Ficoll-Paque, GE Healthcare) to obtain PBMC, washed twice with PBS, then centrifuged at room temperature, 1000 g for 10 min. Cells were collected, and resuspended in RPM′ 1640 Medium (Gibco) containing 10% FBS.
(§2) About 3.6×10⁵ PBMCs (huPBMC or cynoPBMC) per well were added to a 96-well plate. […] Cells were washed with FACS buffer once, resuspended in 50 μL FACS buffer, supplemented with Antibody PE Mouse Anti-Human CD20 (BD Pharmingen™), FITC Mouse Anti-Human CD4 (BD Pharmingen™), and APC Mouse anti-Human Ig, κ Light Chain (BD Pharmingen™), and incubated at room temperature for 45 min. 200 μL FACS buffer was finally added, and the samples were analyzed using ACCURI® C6 Cytometer (BD Biosciences).
(§3) Binding rate was plotted against the y-axis, and drug concentration was plotted against the x-axis. The curve was fitted using a 4-parameter logistic model to determine EC50.

[3] = target: T3, human CD3 on human T lymphocytes (huPBMC) (human, UniProt P07766 23-207); assay: flow cytometry, binding rate on T cells in human PBMC, detection with anti-human Ig κ light chain
T3 construct: whole, on cells; also called huCD3; cell surface antigen CD3 on human T cells
Experimental: as §2, §3

[4] = target: T4, cynomolgus monkey CD3 on cynomolgus monkey T lymphocytes (cynoPBMC) (cynomolgus monkey, UniProt Q95LI5 22-198); assay: flow cytometry, binding rate on T cells in cynomolgus monkey PBMC, detection with anti-human Ig κ light chain
T4 construct: whole, on cells; also called cynoCD3; cell surface antigen CD3 on cynomolgus monkey T cells
Experimental: as §1, §2, §3

[5] = target: T1, human CD19 on cells (human B …); assay: flow cytometry, binding rate on B cells in human PBMC, detection with anti-human Ig κ light chain
Experimental: as §2, §3

[6] = target: T5, cynomolgus monkey CD3 antigen construct cynoCD3εAA 1-27.Fc (cynomolgus monkey; human, UniProt Q95LI5 22-48); assay: BLI (Octet QKe), antigen-Fc captured on AHC sensor, ITAB2009 in solution
T5 construct: range 1-27
T5 chain (looked up): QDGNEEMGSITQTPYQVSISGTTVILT
Experimental: (§4) The human CD3 antigen construct (CD3εAA 1-27.Fc) and the cynomolgus monkey CD3 antigen construct (cynoCD3εAA 1-27.Fc) each consists of a peptide of amino acid residues 1-27 of CD3ε connected to a human IgG Fc. The expression of the antigen constructs is described in U.S. Pat. No. 8,846,042. The CD3 or CD19 antigen constructs (Cynomolgus/Rhesus CD19 Protein (Fc Tag), Sino Biological. Inc.; Recombinant Human CD19 Fc Chimera, R&D Systems. Inc.) were diluted to 0.02 mg/mL with dilution buffer (PBS), and then immobilized on an anti-Human Fc capture (AHC) biosensor. […] The control wells containing only PBS were also set up. The detection results were analyzed using ForteBio Data Analysis software.

[7] = target: T6, Recombinant Human CD19 Fc Chimera (R&D Systems) (human, UniProt P15391 20-291); assay: as above
T6 construct: Bought reagent; also called huCD19.Fc; not shown: Fc of the bought chimera
T6 sequence (looked up): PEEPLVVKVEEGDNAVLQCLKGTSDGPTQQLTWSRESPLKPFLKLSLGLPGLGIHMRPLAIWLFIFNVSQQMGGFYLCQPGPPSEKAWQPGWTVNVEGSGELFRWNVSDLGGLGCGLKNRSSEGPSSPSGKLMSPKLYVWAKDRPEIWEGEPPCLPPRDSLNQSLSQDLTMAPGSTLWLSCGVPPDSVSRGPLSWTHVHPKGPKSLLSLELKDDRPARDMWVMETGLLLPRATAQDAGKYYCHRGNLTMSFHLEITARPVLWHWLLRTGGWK
Experimental: as §4

[8] = target: T7, Cynomolgus/Rhesus CD19 Protein (Fc Tag) (Sino Biological) (cynomolgus monkey / rhesus, UniProt F7F486 20-292 (rhesus entry)); assay: as above
T7 construct: Bought reagent; also called cynoCD19.Fc
T7 sequence: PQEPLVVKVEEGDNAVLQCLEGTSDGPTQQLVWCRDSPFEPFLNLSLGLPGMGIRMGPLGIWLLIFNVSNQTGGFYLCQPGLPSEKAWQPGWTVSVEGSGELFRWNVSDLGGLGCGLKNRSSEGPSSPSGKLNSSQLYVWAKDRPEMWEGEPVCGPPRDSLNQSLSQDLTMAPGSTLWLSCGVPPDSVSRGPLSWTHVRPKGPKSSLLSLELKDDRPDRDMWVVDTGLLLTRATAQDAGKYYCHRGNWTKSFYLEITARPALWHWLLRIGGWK
Experimental: as §4

T3 sequence (P07766 23-207): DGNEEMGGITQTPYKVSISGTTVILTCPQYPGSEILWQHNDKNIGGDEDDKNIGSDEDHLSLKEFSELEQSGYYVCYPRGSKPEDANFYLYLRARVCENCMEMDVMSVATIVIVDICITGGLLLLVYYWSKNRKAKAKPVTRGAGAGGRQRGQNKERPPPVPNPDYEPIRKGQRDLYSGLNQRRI

B1: CD19×CD3 bispecific antigen binding protein ITAB2009 (bispecific antibody)
chain: EVQLVESGGGLVQPGGSLRLSCAASGFTFNTYAMNWVRQAPGKGLEWVARIRSKYNNYATYYADSVKDRFTISRDDSKNTLYLQMNSLRAEDTAVYYCVRHGNFGNSYVSWFAYWGQGTMVTVSSGGGGSGGGGSGGGGSQAVVTQEPSLTVSPGGTVTLTCRSSTGAVTTSNYANWVQQKPGQAPRGLIGGTNKRAPGTPARFSGSLLGGKAALTLSGVQPEDEAEYYCALWYSNLWVFGGGTKLTVLSGGGGSQVQLVQSGPELIKPGGSVKMSCKASGYTFTSYVMHWVRQKPGQGLEWIGYINPYNDGTKYNEKFKGRATLTSDKSSSTAYMELSSLRSEDSAVYYCARGTYYYGSRVFDYWGQGTTVTVSSASTKGPSVFPLAPSSKSTSGGTAALGCLVKDYFPEPVTVSWNSGALTSGVHTFPAVLQSSGLYSLSSVVTVPSSSLGTQTYICNVNHKPSNTKVDKKVEPKSCPPCS
light: DVVMTQSPSSIPVTLGESVSISCRSSKSLQNVNGNTYLYWFQQRPGQSPQLLIYRMSNLNSGVPDRFSGSGSGTDFTLRISGVEPEDVGVYYCMQHLEYPITFGAGTKLEIKRTVAAPSVFIFPPSDEQLKSGTASVVCLLNNFYPREAKVQWKVDNALQSGNSQESVTEQDSKDSTYSLSSTLTLSKADYEKHKVYACEVTHQGLSSPVTKSFNRGECPPCS
notes: Anti-CD3 scFv joined to the N-terminus of the VH of the anti-CD19 Fab; also called CD19×CD3 BSAP ITAB2009; ITB2009
[1]
  EC50 of CD19×CD3 BSAP mediated human PBMC cytotoxicity against tumor cells (Daudi): 0.06 ng/mL
  EC50 of CD19×CD3 BSAP mediated human PBMC cytotoxicity against tumor cells (Raji): 0.04 ng/mL
  EC50 of CD19×CD3 BSAP mediated human PBMC cytotoxicity against tumor cells (Reh): 0.24 ng/mL
[2]
  EC50: 1900 ng/mL
[3]
  EC50: 204 ng/mL
[4]
  EC50: 115 ng/mL
[5]
  EC50: 35 ng/mL
[6]
  Kd: 12.9 nM
[7]
  Kd: 18.2 nM
[8]
  Kd: 29.6 nM
